# Changes are numbered by the printed parent chain.
# T1: human IL-17A (construct not specified) (human, UniProt Q16552 24-155, limits assumed)
# T1 construct: also called huIL-17A
# T1 sequence: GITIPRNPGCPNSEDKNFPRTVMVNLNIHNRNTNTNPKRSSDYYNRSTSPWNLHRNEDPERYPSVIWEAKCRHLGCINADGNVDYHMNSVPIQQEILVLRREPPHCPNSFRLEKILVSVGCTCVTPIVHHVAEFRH
# T2: recombinant huIL-17A (SEQ ID NO: 76) (human, UniProt Q16552 24-155, limits assumed)
# T2 sequence: T1 sequence
# T3: recombinant mIL-17A (mouse, UniProt Q62386 26-158)
# T3 sequence: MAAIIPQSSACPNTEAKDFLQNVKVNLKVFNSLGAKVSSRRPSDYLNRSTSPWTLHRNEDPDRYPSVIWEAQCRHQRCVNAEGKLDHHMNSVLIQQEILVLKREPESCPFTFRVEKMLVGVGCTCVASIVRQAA
# T4: human IL-17A biotin (human) (UniProt Q16552)
# T4 sequence (chain, biotinylated, site not given): T1 sequence
# B1: MB454 (Fab, V domains shown)
# VH: EVQLVESGGDLVQPGGSLRLSCAASGFTFSSYWMSWVRQAPGKGLEWVANIKQDGSEKYYVDSVKGRFTISRDNAKNSLYLQMNSLRAEDTAVYYCARDRGSLYYWGQGTLVTVSS
# VL: AIQLTQSPSSLSASVGDRVTITCRPSQGILWALAWYQQKPGKAPKLLIYDASSLENGVPSRFSGSGSGTDFTLTISSLQPEDFATYYCQQFNSYPLTFGGGTKVEIK
# notes: Fab variant of XAB1
# B2: MB468 (Fab, V domains shown)
# VH: B1 VH
# VL: B1 VL with L30Y, A32E
# notes: Fab variant of XAB1
# B3: MB444 (Fab, V domains shown)
# VH: B1 VH
# VL: B1 VL with A32E
# notes: Fab variant of XAB1
# B4: MB464 (Fab, V domains shown)
# VH: B1 VH
# VL: B1 VL with L30I, W31Y, A32Q
# notes: Fab variant of XAB1
# B5: MB458 (Fab, V domains shown)
# VH: B1 VH
# VL: B1 VL with L30W, W31Y, A32Q
# notes: Fab variant of XAB1
# B6: MB447 (Fab, V domains shown)
# VH: B1 VH
# VL: B1 VL with L30F, A32W
# notes: Fab variant of XAB1
# B7: MB491 (Fab, V domains shown)
# VH: B1 VH
# VL: B1 VL with L30F, W31F, A32W
# notes: Fab variant of XAB1
# B8: MB435 (Fab, V domains shown)
# VH: B1 VH
# VL: B1 VL with L30N, A32E
# B9: MB432 (Fab, V domains shown)
# VH: B1 VH
# VL: B1 VL with W31F
# notes: Fab variant of XAB1
# B10: MB486 (Fab, V domains shown)
# VH: B1 VH
# VL: B1 VL with L30W, A32M
# notes: Fab variant of XAB1
# B11: MB440 (Fab, V domains shown)
# VH: B1 VH
# VL: B1 VL with A32Q
# notes: Fab variant of XAB1
# B12: MB483 (Fab, V domains shown)
# VH: B1 VH
# VL: B1 VL with L30F, A32T
# notes: Fab variant of XAB1
# B13: MB456 (Fab, V domains shown)
# VH: B1 VH
# VL: B1 VL with A32H
# notes: Fab variant of XAB1
# B14: MB450 (Fab, V domains shown)
# VH: B1 VH
# VL: B1 VL with L30M, A32W
# notes: Fab variant of XAB1
# B15: MB461 (Fab, V domains shown)
# VH: B1 VH
# VL: B1 VL with L30Y, A32T
# notes: Fab variant of XAB1
# B16: MB434 (Fab, V domains shown)
# VH: B1 VH
# VL: B1 VL with L30W, A32Y
# notes: Fab variant of XAB1
# B17: MB453 (Fab, V domains shown)
# VH: B1 VH
# VL: B1 VL with L30V, W31F, A32W
# notes: Fab variant of XAB1
# B18: MB457 (Fab, V domains shown)
# VH: B1 VH
# VL: B1 VL with L30I, A32S
# notes: Fab variant of XAB1
# B19: MB438 (Fab, V domains shown)
# VH: B1 VH
# VL: B1 VL with L30P, W31Y
# notes: Fab variant of XAB1
# B20: MB448 (Fab, V domains shown)
# VH: B1 VH
# VL: B1 VL with L30V, A32M
# notes: Fab variant of XAB1
# B21: MB433 (Fab, V domains shown)
# VH: B1 VH
# VL: B1 VL with L30Y, A32G
# notes: Fab variant of XAB1
# B22: MB463 (Fab, V domains shown)
# VH: B1 VH
# VL: B1 VL with L30Y, W31F, A32E
# notes: Fab variant of XAB1
# B23: XAB3 (antibody, human IgG1, kappa, V domains shown)
# VH: B1 VH
# VL: AIQLTQSPSSLSASVGDRVTITCRPSQGIYWELAWYQQKPGKAPKLLIYDASSLEQGVPSRFSGSGSGTDFTLTISSLQPEDFATYYCQQFNSYPLTFGGGTKVEIKR
# B24: XAB5 (antibody, human IgG1, kappa, V domains shown)
# VH: B1 VH
# VL: B23 VL with Y30N, Q56N
# B25: XAB4T (Fab, part only; not given: CH1 and tag, part only)
# heavy, part: EVQLVESGGDLVQPGGSLRLSCAASGFTFSSYWMSWVRQAPGKGLEWVANIKQDGSEKYYVDSVKGRFTISRDNAKNSLYLQMNSLRAEDTAVYYCARDRGSLYYWGQGTLVTVSSGSGGG
# light: AIQLTQSPSSLSASVGDRVTITCRPSQGINWELAWYQQKPGKAPKLLIYDASSLEQGVPSRFSGSGSGTDFTLTISSLQPEDFATYYCQQFNSYPLTFGGGTKVEIKRTVAAPSVFIFPPSDEQLKSGTASVVCLLNNFYPREAKVQWKVDNALQSGNSQESVTEQDSKDSTYSLSSTLTLSKADYEKHKVYACEVTHQGLSSPVTKSFNRGEC
# Biological target: T1, human IL-17A (construct not specified)
# Experiment: ELISA, coated huIL-17A, crude Fab extract
row,Classic ELISA (normalized to XAB1 Fab) [fold],Binder
1,2.9,B1
2,2.8,B2
3,3.2,B3
4,2.7,B4
5,2.7,B5
6,3,B6
7,2.1,B7
8,2.7,B8
9,2.3,B9
10,1.9,B10
11,2.8,B11
12,3.1,B12
13,2.4,B13
14,2.9,B14
15,2.9,B15
16,2.4,B16
17,2.7,B17
18,2.7,B18
19,2.7,B19
20,2.9,B20
21,2.3,B21
22,2.7,B22

# Biological target: T1, human IL-17A (construct not specified)
# Experiment: ELISA, coated huIL-17A, long wash
row,Off-rate ELISA (normalized to XAB1 Fab) [fold],Binder
1,34.2,B1
2,43.9,B2
3,48.9,B3
4,34.9,B4
5,33,B5
6,45.5,B6
7,43,B7
8,44.7,B8
9,44.2,B9
10,58.5,B10
11,52.5,B11
12,47.1,B12
13,45.1,B13
14,41.5,B14
15,49.8,B15
16,44.4,B16
17,43.3,B17
18,34.7,B18
19,41.5,B19
20,40.4,B20
21,39.7,B21
22,34.2,B22

# Biological target: T2, recombinant huIL-17A (SEQ ID NO: 76)
# Experiment: cell-based or functional assay
row,"IC50, huIL-6 secretion by BJ cells; rhuIL-17A (0.5 nM) [nM]",Binder
1,0.5,B23
2,0.54,B24

# Biological target: T1, human IL-17A (construct not specified)
# Experiment: cell-based or functional assay
"EC50, T = 0 weeks [µg/mL]","EC50, T = 4 weeks at pH 8, 40° C. (forced deamidation) [ng/ml]",Binder
0.04,40,B23
0.045,61,B24

# Biological target: T2, recombinant huIL-17A (SEQ ID NO: 76)
# Experiment: cell-based or functional assay
# Remark: another data set of the same source
row,"IC50, huGROα secretion by BJ cells; rhuIL-17A (0.5 nM) [nM]",Binder
1,0.42,B23
2,0.46,B24

# Biological target: T3, recombinant mIL-17A
# Experiment: cell-based or functional assay
row,"IC50, KC secretion by CMT-93 cells; mIL-17A (0.15 nM) [nM]",Binder
1,< 1,B23
2,7.8,B24

# Biological target: T1, human IL-17A (construct not specified)
# Experiment: ELISA, coated huIL-17A, then 200 nM XAB1 Fab as competitor
row,Competition ELISA (normalized to XAB1 Fab) [fold],Binder
1,36.6,B1
2,60,B2
3,52.4,B3
4,36.9,B4
5,42.1,B5
6,57,B6
7,44.2,B7
8,44.6,B8
9,37.3,B9
10,64.9,B10
11,54,B11
12,45.2,B12
13,46.7,B13
14,53.3,B14
15,62.8,B15
16,39.5,B16
17,46.4,B17
18,41,B18
19,41.1,B19
20,51.5,B20
21,29.3,B21
22,31.6,B22

# Biological target: T4, human IL-17A biotin (human)
# Experiment: SPR (Biacore), 25° C., biotinylated ligand
Kd [nM],koff [s⁻¹],kon [M⁻¹ s⁻¹],Binder
0.00768,3.46e-05,4.51e+06,B25
